These are literature values, as cited in article PMC11741591.

The target of the data set is reelin receptors (ApoER2/VLDLR) (Homo sapiens) (UniProt Q14114).
Sequence of UniProt Q14114 (Q14114 33-826): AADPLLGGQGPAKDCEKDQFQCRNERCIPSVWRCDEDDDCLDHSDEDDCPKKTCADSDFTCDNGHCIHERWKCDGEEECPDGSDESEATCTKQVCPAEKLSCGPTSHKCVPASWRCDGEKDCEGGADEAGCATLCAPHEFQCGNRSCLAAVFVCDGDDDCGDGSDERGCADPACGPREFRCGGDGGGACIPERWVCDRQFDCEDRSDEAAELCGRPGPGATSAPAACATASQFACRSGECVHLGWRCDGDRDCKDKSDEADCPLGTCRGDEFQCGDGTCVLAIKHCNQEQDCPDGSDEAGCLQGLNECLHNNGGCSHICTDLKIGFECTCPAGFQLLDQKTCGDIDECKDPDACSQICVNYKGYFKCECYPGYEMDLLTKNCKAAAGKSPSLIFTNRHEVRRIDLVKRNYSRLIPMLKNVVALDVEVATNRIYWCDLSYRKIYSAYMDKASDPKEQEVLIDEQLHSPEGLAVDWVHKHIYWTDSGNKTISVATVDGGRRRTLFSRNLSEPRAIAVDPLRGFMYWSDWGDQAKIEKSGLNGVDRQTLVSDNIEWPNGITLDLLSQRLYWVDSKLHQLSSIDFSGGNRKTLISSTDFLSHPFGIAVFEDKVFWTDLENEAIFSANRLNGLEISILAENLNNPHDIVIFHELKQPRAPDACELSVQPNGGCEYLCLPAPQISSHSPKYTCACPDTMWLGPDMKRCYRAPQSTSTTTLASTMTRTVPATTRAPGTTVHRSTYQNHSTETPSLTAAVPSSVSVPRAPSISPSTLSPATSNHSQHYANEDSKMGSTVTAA

Sequence of reelin (P78509 26-3460): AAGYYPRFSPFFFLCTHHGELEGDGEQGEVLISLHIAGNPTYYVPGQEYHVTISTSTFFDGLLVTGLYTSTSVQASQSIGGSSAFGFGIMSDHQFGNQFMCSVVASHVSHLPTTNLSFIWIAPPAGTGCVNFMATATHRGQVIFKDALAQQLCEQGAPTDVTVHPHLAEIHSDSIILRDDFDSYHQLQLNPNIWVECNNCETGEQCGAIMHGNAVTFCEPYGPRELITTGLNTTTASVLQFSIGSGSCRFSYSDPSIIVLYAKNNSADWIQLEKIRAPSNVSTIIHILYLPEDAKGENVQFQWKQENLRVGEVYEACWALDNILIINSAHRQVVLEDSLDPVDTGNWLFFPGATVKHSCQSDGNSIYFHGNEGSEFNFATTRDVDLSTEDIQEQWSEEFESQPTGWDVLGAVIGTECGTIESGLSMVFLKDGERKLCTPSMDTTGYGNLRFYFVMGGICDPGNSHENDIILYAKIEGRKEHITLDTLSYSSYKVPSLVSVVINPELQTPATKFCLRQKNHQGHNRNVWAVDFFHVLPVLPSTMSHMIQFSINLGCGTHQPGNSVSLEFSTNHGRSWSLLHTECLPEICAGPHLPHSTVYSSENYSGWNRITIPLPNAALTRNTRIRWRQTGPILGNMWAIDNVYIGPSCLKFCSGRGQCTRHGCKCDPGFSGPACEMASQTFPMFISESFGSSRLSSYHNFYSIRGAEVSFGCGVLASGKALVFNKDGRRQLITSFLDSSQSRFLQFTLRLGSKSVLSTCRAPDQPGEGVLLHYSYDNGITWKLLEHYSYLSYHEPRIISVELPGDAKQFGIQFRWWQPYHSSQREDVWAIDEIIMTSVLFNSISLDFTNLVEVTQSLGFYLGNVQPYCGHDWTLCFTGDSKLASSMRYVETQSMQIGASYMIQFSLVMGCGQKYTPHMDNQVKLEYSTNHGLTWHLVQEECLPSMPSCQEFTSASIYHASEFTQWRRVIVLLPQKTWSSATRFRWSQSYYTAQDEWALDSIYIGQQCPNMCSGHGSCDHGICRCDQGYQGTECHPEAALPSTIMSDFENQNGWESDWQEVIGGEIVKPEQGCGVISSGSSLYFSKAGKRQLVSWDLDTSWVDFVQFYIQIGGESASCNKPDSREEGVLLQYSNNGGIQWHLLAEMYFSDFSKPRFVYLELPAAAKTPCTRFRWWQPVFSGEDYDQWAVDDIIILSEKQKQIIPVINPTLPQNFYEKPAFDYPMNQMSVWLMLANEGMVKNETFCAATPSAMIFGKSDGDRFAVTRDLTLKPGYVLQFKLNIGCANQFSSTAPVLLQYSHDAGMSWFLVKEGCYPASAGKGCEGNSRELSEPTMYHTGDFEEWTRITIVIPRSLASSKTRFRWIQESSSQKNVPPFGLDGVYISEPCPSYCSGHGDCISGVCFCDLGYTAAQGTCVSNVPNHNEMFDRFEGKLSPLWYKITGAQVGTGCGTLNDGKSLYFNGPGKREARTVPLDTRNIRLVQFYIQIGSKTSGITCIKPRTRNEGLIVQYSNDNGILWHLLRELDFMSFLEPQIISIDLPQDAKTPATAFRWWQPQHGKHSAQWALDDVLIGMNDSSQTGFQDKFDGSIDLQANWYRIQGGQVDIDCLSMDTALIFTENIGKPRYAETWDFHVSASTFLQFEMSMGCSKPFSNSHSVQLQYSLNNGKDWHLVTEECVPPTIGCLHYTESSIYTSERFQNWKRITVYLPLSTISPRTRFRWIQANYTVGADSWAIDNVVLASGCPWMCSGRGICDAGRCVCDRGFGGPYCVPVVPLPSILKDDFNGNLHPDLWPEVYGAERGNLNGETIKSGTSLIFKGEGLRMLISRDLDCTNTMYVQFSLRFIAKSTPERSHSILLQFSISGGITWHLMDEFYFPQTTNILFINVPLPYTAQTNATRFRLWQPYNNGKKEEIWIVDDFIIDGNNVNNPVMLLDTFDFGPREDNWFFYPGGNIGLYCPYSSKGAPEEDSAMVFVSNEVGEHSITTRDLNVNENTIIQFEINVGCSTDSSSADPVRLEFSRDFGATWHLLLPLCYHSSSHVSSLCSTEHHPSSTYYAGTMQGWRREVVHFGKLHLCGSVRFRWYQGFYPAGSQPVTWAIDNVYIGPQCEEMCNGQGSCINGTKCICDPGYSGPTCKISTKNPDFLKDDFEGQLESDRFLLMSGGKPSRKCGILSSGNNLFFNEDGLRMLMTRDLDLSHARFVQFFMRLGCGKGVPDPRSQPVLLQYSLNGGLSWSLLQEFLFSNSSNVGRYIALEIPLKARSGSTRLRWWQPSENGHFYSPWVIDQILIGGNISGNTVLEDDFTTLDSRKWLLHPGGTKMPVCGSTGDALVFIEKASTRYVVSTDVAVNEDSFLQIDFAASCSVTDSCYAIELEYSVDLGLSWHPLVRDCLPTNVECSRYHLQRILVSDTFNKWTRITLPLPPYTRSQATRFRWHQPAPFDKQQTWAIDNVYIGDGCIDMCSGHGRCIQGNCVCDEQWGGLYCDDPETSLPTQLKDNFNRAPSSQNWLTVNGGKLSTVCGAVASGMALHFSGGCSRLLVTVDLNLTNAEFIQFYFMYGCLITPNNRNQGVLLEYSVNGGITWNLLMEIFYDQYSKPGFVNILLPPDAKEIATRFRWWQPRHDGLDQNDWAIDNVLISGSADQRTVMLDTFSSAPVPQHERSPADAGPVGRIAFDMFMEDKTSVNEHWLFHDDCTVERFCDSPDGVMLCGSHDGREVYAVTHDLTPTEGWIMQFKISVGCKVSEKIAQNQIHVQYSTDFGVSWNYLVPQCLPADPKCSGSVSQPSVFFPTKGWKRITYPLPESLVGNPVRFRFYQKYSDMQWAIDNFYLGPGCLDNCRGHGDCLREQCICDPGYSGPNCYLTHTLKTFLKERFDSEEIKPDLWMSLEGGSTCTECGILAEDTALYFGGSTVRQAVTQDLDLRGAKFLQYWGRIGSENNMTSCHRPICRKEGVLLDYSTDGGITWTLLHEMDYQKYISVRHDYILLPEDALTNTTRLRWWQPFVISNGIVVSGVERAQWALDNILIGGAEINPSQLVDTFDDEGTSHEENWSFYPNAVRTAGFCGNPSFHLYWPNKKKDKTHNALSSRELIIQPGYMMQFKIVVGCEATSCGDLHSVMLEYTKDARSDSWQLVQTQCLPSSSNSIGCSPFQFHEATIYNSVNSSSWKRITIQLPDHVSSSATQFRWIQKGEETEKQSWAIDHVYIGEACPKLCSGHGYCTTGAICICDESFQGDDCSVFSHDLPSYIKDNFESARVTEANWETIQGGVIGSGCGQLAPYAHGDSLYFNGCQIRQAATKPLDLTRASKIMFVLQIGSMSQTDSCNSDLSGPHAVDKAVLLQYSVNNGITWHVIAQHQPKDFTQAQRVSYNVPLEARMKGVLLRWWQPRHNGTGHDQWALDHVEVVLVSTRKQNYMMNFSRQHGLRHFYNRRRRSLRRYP

On to reelin (from UniProt P78509), for which the Kd (as a rule, a measure of binding affinity in units of concentration) is 0.5 nM.
